Key:
[1] = Binding affinity to FGFR
[2] = system: Nc1ncnc2c1ncn2[C@@H]1O[C@H](COP(=O)(O)OP(=O)(O)O)[C@@H](O)[C@H]1O; conditions: Saccharomyces cerevisiae
Description: Binding affinity to yeast Hsp90

[3] = system: Nc1ncnc2c1ncn2[C@@H]1O[C@H](COP(=O)(O)OP(=O)(O)OP(=O)(O)O)[C@@H](O)[C@H]1O; assay: Binding affinity to CDK2/cyclin E; assay type: protein-complex assay

`Nc1ncnc2c1ncn2[C@@H]1O[C@H](COP(=O)(O)OP(=O)(O)OP(=O)(O)O)[C@@H](O)[C@H]1O` gave a Km [1] of 70 µM.
For “ATP-dependent molecular chaperone HSP82 (Saccharomyces cerevisiae S288c), P02829”, the Km [2] was 150 µM.
“Cyclin-dependent kinase 2/cyclin E (Homo sapiens) (from UniProt P24864+P24941+O96020)” gave a Km [3] of 3.6 µM.

— ChEMBL document CHEMBL1268867, “ATPases as drug targets: insights from heat shock proteins 70 and 90” (J Med Chem, 2010)
